We go through 5 compounds from article PMC4658561, “A mechanism of glucose tolerance and stimulation of GH1 β-glucosidases” (Scientific Reports, 2015).

Data set [1] has as its system T1, O=[N+]([O-])c1ccc(O[C@@H]2O[C@H](CO)[C@@H](O)[C@H](O)[C@H]2O)cc1.
T1 construct: pET-22b(+) NdeI/XhoI, C-terminal His6 (kept), E. coli BL21(DE3), Ni-NTA purified; GH1, EC 3.2.1.21; residues V227, H228, N301, V302
Kind of data set: purified protein. The class given is biochemical, uncultured bacterium. The conditions noted are these: no glucose, 50 mM Na2HPO4-citric acid buffer pH 7.0, optimal conditions.

Data set [2] concerns the target T2, Bgl1B (uncultured bacterium, UniProt D0VEC8, H228T).
T2 construct: pET-22b(+) NdeI/XhoI, C-terminal His6 (kept), E. coli BL21(DE3), Ni-NTA purified; GH1, EC 3.2.1.21; residues V227, H228, N301, V302
T2 sequence (D0VEC8 1-449 H228T): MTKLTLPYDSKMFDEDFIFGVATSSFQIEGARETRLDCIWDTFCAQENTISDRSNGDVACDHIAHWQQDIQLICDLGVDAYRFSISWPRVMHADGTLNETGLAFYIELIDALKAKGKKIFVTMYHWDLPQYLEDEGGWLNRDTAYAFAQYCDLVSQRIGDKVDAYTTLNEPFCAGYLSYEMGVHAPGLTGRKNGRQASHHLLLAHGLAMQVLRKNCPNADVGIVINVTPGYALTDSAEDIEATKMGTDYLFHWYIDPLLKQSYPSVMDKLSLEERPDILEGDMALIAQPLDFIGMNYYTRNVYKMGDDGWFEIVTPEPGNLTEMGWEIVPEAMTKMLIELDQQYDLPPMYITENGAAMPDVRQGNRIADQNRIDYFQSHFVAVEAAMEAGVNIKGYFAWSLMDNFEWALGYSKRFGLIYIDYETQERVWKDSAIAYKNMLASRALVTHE
Kind of data set: relative activity on pNPG versus glucose concentration. The class given is biochemical. The conditions noted are these: pH […], stimulation at low concentration, transglycosylation acceptor.

A further data set deals with T3, Bgl1A (uncultured bacterium, UniProt D5KX75).
T3 construct: pET-22b(+) NdeI/XhoI, C-terminal His6 (kept), E. coli BL21(DE3), Ni-NTA purified; GH1, EC 3.2.1.21; residues T228, Q301, F302
T3 sequence (D5KX75 1-442): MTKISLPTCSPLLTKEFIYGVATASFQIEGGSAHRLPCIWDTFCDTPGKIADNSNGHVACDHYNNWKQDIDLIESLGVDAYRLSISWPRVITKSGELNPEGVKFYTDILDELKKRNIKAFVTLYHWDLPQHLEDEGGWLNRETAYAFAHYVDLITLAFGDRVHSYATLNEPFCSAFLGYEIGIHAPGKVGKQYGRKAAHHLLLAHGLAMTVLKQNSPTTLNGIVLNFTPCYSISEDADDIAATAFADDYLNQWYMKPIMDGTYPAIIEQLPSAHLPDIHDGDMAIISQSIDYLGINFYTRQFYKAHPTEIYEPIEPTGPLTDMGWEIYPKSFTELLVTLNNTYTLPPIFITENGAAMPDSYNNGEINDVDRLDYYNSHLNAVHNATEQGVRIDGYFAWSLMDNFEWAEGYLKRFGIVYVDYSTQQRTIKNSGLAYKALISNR
The description is as above. The class given is biochemical. The conditions noted are these: pH […], stimulation at low concentration, transglycosylation acceptor.

Data set [3] concerns the target T4, Bgl1B (uncultured bacterium, UniProt D0VEC8).
T4 construct: pET-22b(+) NdeI/XhoI, C-terminal His6 (kept), E. coli BL21(DE3), Ni-NTA purified; GH1, EC 3.2.1.21; residues V227, H228, N301, V302
T4 sequence (D0VEC8 1-449): T2 sequence (D0VEC8 1-449 H228T) with T228H
The description is as above. The class given is biochemical. The conditions noted are these: pH […], product inhibition, competitive.

In data set [4] the test system is T5, O=[N+]([O-])c1ccc(O[C@@H]2O[C@H](CO)[C@@H](O)[C@H](O)[C@H]2O)cc1.
T5 construct: pET-22b(+) NdeI/XhoI, C-terminal His6 (kept), E. coli BL21(DE3), Ni-NTA purified; GH1, EC 3.2.1.21; residues T228, Q301, F302
Kind of data set: purified protein. The conditions noted are these: no glucose, 50 mM Na2HPO4-citric acid buffer pH 7.0, optimal conditions. The class given is biochemical, uncultured bacterium.

Numbering of substitutions follows the chain as printed.

By Km is commonly meant the concentration of substrate that gives half-maximal velocity. Broadly, the Vmax is the rate approached at saturating substrate. As usually defined, the kcat/Km is the second-order rate constant that governs catalysis at low substrate concentration.

As for Bgl1B (uncultured bacterium; H228T), in data set [1], the Km is 0.36 ± 0.03 mM, the Vmax is 10.1 µM/min and the kcat/Km stood at 24200 M⁻¹ s⁻¹.
For the compound `OC[C@H]1OC(O)[C@H](O)[C@@H](O)[C@@H]1O` (stereo partly drawn) [glucose], the relative activity entry on Bgl1B [2] is “only B:H228T exhibited glucose stimulation, essentially distinctive from wild-type Bgl1B”; on Bgl1A, “Bgl1A displayed high glucose tolerance, and was stimulated by low concentrations of glucose”; on Bgl1B [3] it was “the activity of Bgl1B was persistently inhibited by glucose”.
In the case of Bgl1A (uncultured bacterium), in data set [4], the Km came out at 0.69 ± 0.07 mM, the maximal velocity (Vmax) was 2.7 µM/min and the kcat/Km stood at 35500 M⁻¹ s⁻¹.
As for “Bgl1B (uncultured bacterium; N301Q/V302F)”, in data set [1], the Km is on record as 0.83 ± 0.07 mM, the Vmax worked out at 8.84 µM/min and the kcat/Km came to 2860 M⁻¹ s⁻¹.
On to Bgl1B (uncultured bacterium), for which, in data set [1], the Km is listed as 0.27 ± 0.02 mM, the Vmax turned out to be 12.6 µM/min and the kcat/Km was found to be 74700 M⁻¹ s⁻¹.
